According to article doi:10.1101/2021.12.07.471597 (bioRxiv, 2021):

How the values were obtained:
[1] = biological target: biotinylated SARS-CoV-2 RBD (Wuhan) (SARS-CoV-2, UniProt P0DTC2, biotin); assay: flow cytometry on cells
[2] = biological target: VHH72.71-Fc (llama); assay: BLI
[3] = biological target: VHH72.76-Fc (llama); assay: BLI
[4] = biological target: VHH72-Fc (llama); assay: BLI
[5] = biological target: VHH72.6-Fc (llama); assay: BLI
[6] = biological target: VHH72.65-Fc (llama); assay: BLI
[7] = biological target: VHH72.66-Fc (llama); assay: BLI

Measured: binding result

B1: VHH72 displayed on yeast (VHH)
VHH: QVQLQESGGGLVQAGGSLRLSCAASGRTFSEYAMGWFRQAPGKEREFVATISWSGGSTYYTDSVKGRFTISRDNAKNTVYLQMNSLKPDDTAVYYCAAAGLGTVVSEWDYDYDYWGQGTQVTVSS
binds: [1]

B2: SARS-CoV-1 RBD (domain or fragment)
chain: not shown
not listed: [1]
binds: all other assays above
